Results published in publication PMC7991749.
Each block holds one substance with its values, some of them ahead of it.

Tests used:
[1] = tested on: ctXPD;ctp44 (Chaetomium thermophilum;Chaetomium thermophilum); experiment: photo-cross-linking; details: 5 mM Mg2+, 2.5 mM ATP, FA: 20 mM HEPES pH 7.5, 30 mM KCl, 5 mM MgCl2, 1 mM TCEP, 10 nM DNA, room temperature, photo-cross-linking: 20 mM HEPES pH 7.5, 50 mM KCl
[2] = tested on: ctXPD (Chaetomium thermophilum); experiment: photo-cross-linking; details: 5 mM Mg2+, FA: 20 mM HEPES pH 7.5, 30 mM KCl, 5 mM MgCl2, 1 mM TCEP, 10 nM DNA, photo-cross-linking: 20 mM HEPES pH 7.5, 50 mM KCl
[3] = tested on: ctXPD;ctp44 (Chaetomium thermophilum;Chaetomium thermophilum); experiment: fluorescence anisotropy; details: FA: 20 mM HEPES pH 7.5, 30 mM KCl, 5 mM MgCl2, 1 mM TCEP, 10 nM DNA, room temperature, photo-cross-linking: 20 mM HEPES pH 7.5, 50 mM KCl
[4] = molecular target: ctXPD (XPD helicase from Chaetomium thermophilum) (Chaetomium thermophilum)

Substance: AAGCCTATGCCTACAGCATCCAGGGCGACGGTGCCGAGGATGACGATGAGCGCA / TGCGCTCATCGTCATCCTCGGCACCGTCGCCCTGGATG [fs-Fap-dC 54/38]
binding signal (fold vs same mixture without ATP) ([1]; ctXPD adduct, Fap-dC at position 26 of strand 1 (position inferred from parallel oligos)): 2.6
binding signal (fold vs same mixture without ATP) ([1]; ctp44 adduct, Fap-dC at position 26 of strand 1 (position inferred from parallel oligos)): 2
binding signal (relative cross-linking (reference)) ([2]; no ATP, no ctp44, Fap-dC at position 26 of strand 1 (position inferred from parallel oligos), room temperature): 1

Substance: ATGCCTACAGCAAGCCTATGCCTACAGCATCCAGGGCGACGGTGCCGAG [ss-Fap-dC 49]
K half ([3]; 5 mM Mg2+, 2 mM ATP, EC50, Fap-dC at position 37 (position inferred from parallel oligos)): 307 nM
K half ([3]; Fap-dC at position 37 (position inferred from parallel oligos)): 200 nM

Substance: ATGCCTACAGCAAGCCTATGCCTACAGCATCCAGGGNGACGGTGCCGAG [ss-nFlu 49]
K half ([3]; position 37 (N; printed F) = nFlu lesion): 3 nM

Substance: AAGCCTATGCCTACAGCATCCAGGGCGACGGTGCCGAGGATGACGATGAGCGCA [ss-Fab(g)-dC 54]
binding signal (fold cross-linking vs ds probe) ([2]; position 26 (B) = Fab(g)-dC, room temperature, 5 mM MgCl2, 1 mM …): 3

Substance: ATGCCTACAGCAAGCCTATGCCTACAGCATCCAGGGCGACGGTGCCGAG [ss-Fab(g)-dC 49]
K half ([3]; 5 mM Mg2+, 2 mM ATP, EC50, position 37 (B) = Fab(g)-dC): 268 nM

Substance: ATGCCTACAGCAAGCCTATGCCTACAGCATCCAGGGNGACGGTGCCGAG [ss-nAnt 49 (ss-Ant)]
K half ([3]; position 37 (N; printed A) = nAnt, N-[6-(9-anthracenylcarbamoyl)hexanoyl]-3-amino-1,2-propanediol, non-nucleoside lesion): 63 nM

ATPase activity of ctXPD (NADH-coupled assay, 37°C): activation by 4 to 1000 nM ctp44 titrated onto 250 nM ctXPD in the presence of 1 μM ssDNA [4]: 82 nM
Substance: ctp44 (1-285) (domain or fragment)

Substance: AAGCCTATGCCTACAGCATCCAGGGCGACGGTGCCGAGGATGACGATGAGCGCA [ss-Fap-dC 54]
binding signal (fold cross-linking vs ds probe) ([2]; Fap-dC at position 26 (position inferred from parallel oligos), room …): 3

Substance: ATGCCTACAGCAAGCCTATGCCTACAGCATCCAGGGCGACGGTGCCGAG [ss-um 49]
K half ([3]; none): 500 nM

Substance: AAGCCTATGCCTACAGCATCCAGGGCGACGGTGCCGAGGATGACGATGAGCGCA / TGCGCTCATCGTCATCCTCGGCACCGTCGCCCTGGATG [fs-Fab(g)-dC 54/38]
binding signal (fold vs same mixture without ATP) ([1]; ctXPD adduct, position 26 of strand 1 (B) = Fab(g)-dC): 1.8
binding signal (fold vs same mixture without ATP) ([1]; ctp44 adduct, position 26 of strand 1 (B) = Fab(g)-dC): 2
binding signal (fold vs same probe without ATP) ([2]; 2.5 mM ATP, no ctp44, position 26 of strand 1 (B) = Fab(g)-dC, room temperature): 2.1
